Measured values from the Human Domainome abundance scans (Beltran et al. 2025).
± gives the uncertainty stated by the source.

B1: Probable E3 ubiquitin-protein ligase MID2, residues 191 to 235; numbered along this chain, Q9UJV3 (parent)
chain: RGITCLDHENEKVNMYCVSDDQLICALCKLVGRHRDHQVASLNDR

Variants of: B1
Test: abundance fitness (aPCA) (normalised: wild type 0, dead -1); higher = more abundant; growth selection in yeast, the domain comes from the species named
Details: Homo sapiens

Variant | abundance fitness
RGITCLDHENEKVNMYCVSDDQLICALCKHVGRHRDHQVASLNDR | -0.012 ± 0.09
RGITCLDHENEKVNMYCVSDDQLICALCKYVGRHRDHQVASLNDR | -0.071 ± 0.1
RGITCLDHENEKVNMYCVSDDQLICALCKKVGRHRDHQVASLNDR | 0.348 ± 0.11
RGITCLDHENEKVNMYCVSDDQLICALCKEVGRHRDHQVASLNDR | 0.096 ± 0.059
RGITCLDHENEKVNMYCVSDDQLICALCKLVGRHRDHQVQSLNDR | 0.09 ± 0.076
RGITCLDHENEKVNMYCVSDDQLICALCKLVGRHRDHQVSSLNDR | 0.063 ± 0.057
RGITCLDHENEKVNMYCLSDDQLICALCKLVGRHRDHQVASLNDR | -0.024 ± 0.058
RGITCLDHENEKVNMYCWSDDQLICALCKLVGRHRDHQVASLNDR | -0.19 ± 0.056
RGITCLDHENEKVNMYCCSDDQLICALCKLVGRHRDHQVASLNDR | 0.036 ± 0.082
RGITCLDHENEKVNMYCRSDDQLICALCKLVGRHRDHQVASLNDR | 0.056 ± 0.048
RGITCLDHENEKVNMYCVSDDQLICALRKLVGRHRDHQVASLNDR | -1.05 ± 0.081
RGITCLDHENEKVNMYCVSDDQLICALDKLVGRHRDHQVASLNDR | -0.469 ± 0.084
RGITCLDHENEKVNMYCVSDDQLICALPKLVGRHRDHQVASLNDR | -0.439 ± 0.12
RGITCLDWENEKVNMYCVSDDQLICALCKLVGRHRDHQVASLNDR | -0.97 ± 0.069
RGITCLDYENEKVNMYCVSDDQLICALCKLVGRHRDHQVASLNDR | -0.831 ± 0.16
RGITCLDHENEKVNKYCVSDDQLICALCKLVGRHRDHQVASLNDR | -0.176 ± 0.12
RGITCLLHENEKVNMYCVSDDQLICALCKLVGRHRDHQVASLNDR | -0.162 ± 0.066
RGITCLAHENEKVNMYCVSDDQLICALCKLVGRHRDHQVASLNDR | -0.128 ± 0.051
RGITCLHHENEKVNMYCVSDDQLICALCKLVGRHRDHQVASLNDR | -0.015 ± 0.11
RGITCLFHENEKVNMYCVSDDQLICALCKLVGRHRDHQVASLNDR | -0.082 ± 0.27
RGITCLQHENEKVNMYCVSDDQLICALCKLVGRHRDHQVASLNDR | -0.147 ± 0.084
RGITCLDHENWKVNMYCVSDDQLICALCKLVGRHRDHQVASLNDR | -0.215 ± 0.052
RGITCLDHENFKVNMYCVSDDQLICALCKLVGRHRDHQVASLNDR | -0.248 ± 0.15

Variant | abundance fitness
RGITCLDHENVKVNMYCVSDDQLICALCKLVGRHRDHQVASLNDR | -0.519 ± 0.054
RGITCLDHENKKVNMYCVSDDQLICALCKLVGRHRDHQVASLNDR | -0.33 ± 0.14
RGITCLDHENAKVNMYCVSDDQLICALCKLVGRHRDHQVASLNDR | -0.177 ± 0.047
RGITCLDHENEKVNMYCVSDDQLICAHCKLVGRHRDHQVASLNDR | -0.03 ± 0.22
RGITCLDHENEKVNMYCVSDDQLICASCKLVGRHRDHQVASLNDR | 0.052 ± 0.068
RGITCLDHENEKVNMYCVSDDQLICAGCKLVGRHRDHQVASLNDR | -0.058 ± 0.049
RGITCLDHENEKVNMYCVSDDQLICANCKLVGRHRDHQVASLNDR | 0.311 ± 0.11
RGITCLDHENEKVNMYCVSDDQLICAYCKLVGRHRDHQVASLNDR | -0.263 ± 0.13
RGITCLDHENEKVNMYCVSDDQTICALCKLVGRHRDHQVASLNDR | -0.046 ± 0.14
RGITCLDHENEKVNMYCVSDDQNICALCKLVGRHRDHQVASLNDR | 0.352 ± 0.17
RGITCLDHENEKVNMYCVSDDQMICALCKLVGRHRDHQVASLNDR | 0.199 ± 0.069
RGITCLDHENEKVNMYCVSDDQLICALCKLVGRHRDHQEASLNDR | -0.143 ± 0.068
RGITCLDHENEKVNMYCVSDDQLICALCKLVGRHRDHQHASLNDR | 0.067 ± 0.15
RGITCLDHENEKVNMYCVSDDQLICALCKLVGRHRDHQPASLNDR | -0.249 ± 0.13
RGITCLDHENEKVHMYCVSDDQLICALCKLVGRHRDHQVASLNDR | 0.117 ± 0.096
RGITCLDHENEKVCMYCVSDDQLICALCKLVGRHRDHQVASLNDR | -0.204 ± 0.12
RGITCLDHENEKVKMYCVSDDQLICALCKLVGRHRDHQVASLNDR | 0.015 ± 0.069
RGIVCLDHENEKVNMYCVSDDQLICALCKLVGRHRDHQVASLNDR | -0.235 ± 0.051
RGICCLDHENEKVNMYCVSDDQLICALCKLVGRHRDHQVASLNDR | -0.18 ± 0.092
RGITCLDHENEKVNMYCVSDDQLINALCKLVGRHRDHQVASLNDR | -1.14 ± 0.16
RGETCLDHENEKVNMYCVSDDQLICALCKLVGRHRDHQVASLNDR | 0.036 ± 0.057
RGWTCLDHENEKVNMYCVSDDQLICALCKLVGRHRDHQVASLNDR | -0.229 ± 0.056
RGITCLDHENEKVNMYCVSDDQLICFLCKLVGRHRDHQVASLNDR | -0.277 ± 0.26

Variant | abundance fitness
RGITCLDHENEKVNMYCVSDDQLICGLCKLVGRHRDHQVASLNDR | 0.103 ± 0.053
RGITCLDHENEKVNMYCVRDDQLICALCKLVGRHRDHQVASLNDR | -0.041 ± 0.046
RGITCLDHENEKVNMYCVADDQLICALCKLVGRHRDHQVASLNDR | 0.107 ± 0.05
RGITCLDHENEKVNMYCVPDDQLICALCKLVGRHRDHQVASLNDR | -0.047 ± 0.066
RGITCLDHENEAVNMYCVSDDQLICALCKLVGRHRDHQVASLNDR | -0.095 ± 0.059
RGITCLDHENEKVNMYCVSDDQLICALCKLVGRHRDHCVASLNDR | -0.152 ± 0.1
RGITCLDHENEKVNMYCVSDDQLICALCKLVGRHRDHTVASLNDR | -0.195 ± 0.1
RGITCLDHENEKVNMYCVSDDQLICALCKLVGRHRDHYVASLNDR | -0.16 ± 0.21
DGITCLDHENEKVNMYCVSDDQLICALCKLVGRHRDHQVASLNDR | -0.079 ± 0.072
TGITCLDHENEKVNMYCVSDDQLICALCKLVGRHRDHQVASLNDR | -0.118 ± 0.092
RGITCLDHENEKVNMYCVSDDQLICALCKLVGRHQDHQVASLNDR | -0.11 ± 0.19
RGITCLDHENEKVNMYCVSDDQLICALCKLVGRHPDHQVASLNDR | -0.195 ± 0.069
RGITCLDHENEKVNMQCVSDDQLICALCKLVGRHRDHQVASLNDR | 0.236 ± 0.091
RGITCLDHENEKVNMSCVSDDQLICALCKLVGRHRDHQVASLNDR | -0.178 ± 0.073
RGITCLDHENEKVNMYCVSDDQLICALCKLVGRHRDHQVAGLNDR | -0.021 ± 0.055
RGITCLDHENEKVNMYCVSDDQLICALCKLVGRHRDHQVAYLNDR | -0.502 ± 0.45
RGITCLDHENEKVNMYCVSDDQLICALCKLVGRHRDHQVAFLNDR | -0.385 ± 0.14
RSITCLDHENEKVNMYCVSDDQLICALCKLVGRHRDHQVASLNDR | -0.069 ± 0.065
RTITCLDHENEKVNMYCVSDDQLICALCKLVGRHRDHQVASLNDR | -0.06 ± 0.086
RGITCLDHENEKVNMYCVSDDQLICALCKLVGEHRDHQVASLNDR | -0.022 ± 0.093
RGITCLDHENEKVNMYCVSDDQLICALCKLVGVHRDHQVASLNDR | -0.073 ± 0.059
RGITCLDHENEKVNMYCVSDDQLICALCKLDGRHRDHQVASLNDR | -0.022 ± 0.098
RGITCLDHENEKVNMYCVSDDQLICALCKLEGRHRDHQVASLNDR | 0.149 ± 0.062

Variant | abundance fitness
RGITCLDHENEKVNMYCVSDIQLICALCKLVGRHRDHQVASLNDR | -0.951 ± 0.17
RGITCLDHENEKVNMYCVSDDQLICALCKLVGRVRDHQVASLNDR | -0.558 ± 0.081
RGITGLDHENEKVNMYCVSDDQLICALCKLVGRHRDHQVASLNDR | -0.461 ± 0.046
RGITSLDHENEKVNMYCVSDDQLICALCKLVGRHRDHQVASLNDR | -0.448 ± 0.062
RGITPLDHENEKVNMYCVSDDQLICALCKLVGRHRDHQVASLNDR | -0.717 ± 0.099
RGITCLDHENEKVNMYCVSDDQLICALCKLVLRHRDHQVASLNDR | -0.684 ± 0.078
RGITCLDHENEKVNMYCVSDDQLICALCKLVKRHRDHQVASLNDR | -0.316 ± 0.088
RGITCLDHENEKVNMYCVSDDQLICALCKLVVRHRDHQVASLNDR | -0.474 ± 0.067
RGITCLDHENEKVNMYCVSDDQLICALCKLVQRHRDHQVASLNDR | -0.472 ± 0.081
RGITCLDHENEKVNMYCVSDDQLICALCKLVGRHRRHQVASLNDR | -0.255 ± 0.061
RGITCLDHENEKVNMYCVSDDQLICALCKLVGRHRQHQVASLNDR | -0.235 ± 0.088
RGITCLDHENEKVNMYCVSDDQLICALCKLVGRHRTHQVASLNDR | -0.176 ± 0.13
RGITCLDHENEKVNMYCVSDDQLICALCKLVGRHRLHQVASLNDR | -0.125 ± 0.06
RGITCLDHKNEKVNMYCVSDDQLICALCKLVGRHRDHQVASLNDR | 0.073 ± 0.079
RGITCLDHFNEKVNMYCVSDDQLICALCKLVGRHRDHQVASLNDR | 0.1 ± 0.16
RGITCLDHWNEKVNMYCVSDDQLICALCKLVGRHRDHQVASLNDR | -0.252 ± 0.054
RGITCCDHENEKVNMYCVSDDQLICALCKLVGRHRDHQVASLNDR | 0.069 ± 0.055
RGITCQDHENEKVNMYCVSDDQLICALCKLVGRHRDHQVASLNDR | 0.176 ± 0.061
RGITCKDHENEKVNMYCVSDDQLICALCKLVGRHRDHQVASLNDR | 0.213 ± 0.072
RGITCDDHENEKVNMYCVSDDQLICALCKLVGRHRDHQVASLNDR | 0.124 ± 0.099
RGITCLDHENEKVNMYCVSDDQLICALCYLVGRHRDHQVASLNDR | -0.079 ± 0.14
RGITCLDHENEKVNMYCVSDDQLICALCALVGRHRDHQVASLNDR | 0.063 ± 0.057
RGITCLDHENEKVNMYCVSDDQLACALCKLVGRHRDHQVASLNDR | -0.104 ± 0.11

Variant | abundance fitness
RGITCLDHENEKVNMYEVSDDQLICALCKLVGRHRDHQVASLNDR | -0.163 ± 0.12
RGITCLDHENEKQNMYCVSDDQLICALCKLVGRHRDHQVASLNDR | -0.047 ± 0.12
RGITCLDHENEKVNMYCVSDDQLICALCKLVGRHRDHQVASSNDR | 0.046 ± 0.06
RGITCLDHENEKVNMYCVSDDQLICALCKLVGRHRDHQVASYNDR | -0.127 ± 0.11
RGITCLDHENEKVNMYCVSDDQLICALCKLVGRHRDHQVASDNDR | -0.046 ± 0.1
RGITCLDHENEKVNMYCVSDDQLICALCKLVGRHRDHQVASLNDD | -0.087 ± 0.14
RGITCLDHENEKVNMYCVSDDQLICALCKLVGRHRDHQVASLNDI | -0.033 ± 0.13
RGITCLDHENEKVNMYCVSDDQLICALCKLVGRHRDHQVASLNDE | 0.276 ± 0.079
RGITCLDHENEKVNMYCVSDDQLICALCKLVGRHRDHQVASLQDR | -0.043 ± 0.068
RGITCLDHENEKVNMYCVSDDQLICALCKLVGRHRDHQVASLNTR | -0.122 ± 0.11
RGITCLDHENEKVNMYCVSDDQLICALCKLVGRHRDHQVASLNAR | -0.152 ± 0.062
RGITCLDHENEKVNMYCVSDDQLICALCKLVGRHRDHQVASLNSR | -0.067 ± 0.074
RGITCLDHENEKVNMYCVSDDQLICALCKLVGRHRDHQVASLNCR | -0.452 ± 0.17
RGITCLDHENEKVNMYCVSDDQLICALCKLVGRHRDHQVASLNLR | -0.427 ± 0.1
RGITCLDHEMEKVNMYCVSDDQLICALCKLVGRHRDHQVASLNDR | -0.173 ± 0.075
RGITCLDHEIEKVNMYCVSDDQLICALCKLVGRHRDHQVASLNDR | -0.176 ± 0.37
RGITCLDHEAEKVNMYCVSDDQLICALCKLVGRHRDHQVASLNDR | -0.348 ± 0.052
RGITCLDHEFEKVNMYCVSDDQLICALCKLVGRHRDHQVASLNDR | -0.577 ± 0.12
RGITCLDHENEKVNMYCVSADQLICALCKLVGRHRDHQVASLNDR | -0.77 ± 0.071
RGITCLDHENEKVNMYCVSKDQLICALCKLVGRHRDHQVASLNDR | -0.357 ± 0.078
RGITCLDHENEKVNMYCVSCDQLICALCKLVGRHRDHQVASLNDR | -0.178 ± 0.084
RGITCLDHENEKVNMYCVSVDQLICALCKLVGRHRDHQVASLNDR | -1.03 ± 0.094
